The target in assay [1] is HLA-A*02:01/MAGE-A4 complex (human) (UniProt P04439). The experiment in a line: SPR (Biacore T200), pMHC on streptavidin chip, 1:1 Langmuir fit. A general note: Surface plasmon resonance follows binding to a sensor surface in real time, without labels.
For assay [2] the target is unchanged. Description: SPR.

B1: M1302 (bispecific antibody, from a related filing, V domains shown)
VH: EVQLLESGGGSVQPGGSLRLSCTVSGFSLSNYAMSWVRQAPGKGLEWIGIVSSGGTTYYASWAKGRFTISKDTSKNTVYLQMNSLRAEDTASYYCAKDLYYGPNTDYSAANLWGQGTSVTVSS
VL: SYELTQPPSVSVSPGQTASITCTADTLSRSYASWYQQKPGQSPVLVIYRDTSRPSGIPERFSGSNSGNTATLTISGTQAMDEADYYCATRPSSGSNFQLFGGGTKLTVL
As a reminder, the Kd is the concentration at which binding is half-saturated. High values mean a looser complex, low ones a tighter complex. In the case of B1, the Kd in assay [1] and in assay [2] was 0.6 nM each time.

B2: M1041 (bispecific antibody, from a related filing, V domains shown)
VH: ESQVLESGGGSVQPGGSLRLSCTVSGFSLSNYAMSWVRQAPGKGLEYIGIVSSGGTTYYASWAKGRFTISKDTSKNTVYLQMNSLRAEDTASYYCAKDLYYGPTTYSAFNLWGQGTSVTVSS
VL: SYELTQPPSVSVSPGQTASITCTADTLSRSYASWYQQKPGQSPVLVIYRDTSRPSGIPERFSGSNSGNTATLTISGTQAMDEADYYCATRPSSGSNFQLFGGGTKLTVL
Take B2: the Kd in assay [1] came to 0.24 nM; in assay [2], 0.25 nM.

For the origin of these results see patent publication US20250144141A1.
